The DeepSol protein solubility set

Assay: soluble on expression in E. coli; label from the status in PepcDB or PDB records

| Sequence | soluble on expression in E. coli |
| --- | --- |
| MAHHHHHHMTDASKYKKLTPIDHVLLRPEMYVGSIETQPTPMYIFDPEKGRMVWETMRVNQGLLKIVDEILLNAADNINNSKGSVRQTYINIHISDTGEITVENDGAGLPIVRSREHKMYIPEMVFGHLLTSSNYNNDSTSTTAGRHGYGAKLTNILSTKFSVVCRTDGREFHMSWTDHMRMATAPRVNRVDPKEKNVTRVKFMPDYAHFGFPSASISLDMKRVLHKRVMDLAAMFSKIEVRLNNVPFGFRTFTDYAGLYSLPGLDGSMPPEPFVYTSPNGSVAYVPQLTQSPKRIVSVVNGVVTYNGGTHCNAAMDILDACLDSLSKNFKKNGKVVDTNRVQRHFTVLVFLVQAQPKFDSQSKARLVSTVTMPRVPKNTLEKYLERMPFLEAHVNSMDDQLTNELNKEIGAGRRLSSKTLISSITKLVDATSSRPDGRNIRTLIITEGDSAKALALNSLSSEQKKYCGVFPLRGKLLNVRNKNLKRLKTCKELQDLFLSLGLELGKEYRSPAELRYQRLLVMTDQDADGSHIKGLVINAFESLWPKLLQNNPGYISLFSTPIVKIKVSGKSKEAIAFHSFRDFHRWQRAHPSARYTAKYYKGLGTSTTAEGKEYFADMEKNVMQLTVDARDHQLLDSVFDAAEVEWRKEWMTKANAFQGEVDIDRSKKTLTIPEFVHKEMVHFALVGNARAIPHCVDGLKPSQRKILWAMLRRHNSEASKVAQLSGYISEASAFHHGEASLQETIVKMAQNFTGGNNINLLVPEGQFGSRQQLGSDHAAPRYIFTKLSRFARLLFPEEDDPLLDYMDEEGTFVEPHHYVPILPMLLCNGAVGIGFGFATTIPSFHPLDVSAAVRAMINGESAKQVVRNLVPWAVGFQGTVRRGPDNEFIAVGKYTAHPNGRFHISEIPWMTSIEAFRLHISSLASADVVQRIADYSGANHIDIDLIVRDGSLTTWAECETDLALAQRIYINGTVFSPAGTLSPIDSDLSPVLQWHYDRRLDLYKRRRTRKIGLMEMDLARLQSTRKFVEHFRQGQIDFLNATDDTLHKTCVKLGLVRVDESFDYILKKPITFFTRTSTEKLQADIAKTQAQIEELKRTTPVKMWLTELDKFDKTFQEYERVLINSIQKEQRSSSITGGVELPALRQPLLLLEASVKGATAYRVHACQYEKPPPSKRRPGESFGGARSSDSAVRGVGKRLVGSRAVFKKKKPMGRKNNVKVSLSTRVAQFAGAQLGRLLPHILV | not soluble |
| MGSDKIHHHHHHMNVLEQFYQLGWTLDSAGGASGEAYMAEQDGQKLFLKRNSNPFIAALSAEGIVPKLVWTKRIETGEVVTAQHWKNGRELNEDEMNQTRVAELLHKIHGSRPLLTMLKRMEMEPITPDIMLNKINASLSREVLTHHVVRRALTYLEDHIPNLDARFFTVVHGDVNHNNWLLSDRDELYLVDWEGAMIADPAIDIGMLLYNYVPQNKWSQWFKTYGVEESVNLNKRMKWYTVIQAIGLIQWYEEQKRYRDMNTWLKFLNEVMNSNLFI | not soluble |
| ADSVFISGHKNADMDSLGAALGIWRMSRLHDLTAYIIIDDQNLQRDVKLVIGKINDEVDAANEKLKNQATDGKTPKLIEQPFITEKKALSLATDQSLLVLVDHSRPSISAAGQLLEKLKSSLIVIDHHRIADESFSEKPILFYVEQYASSTCELVTELLGYEDRRKSPLTKVEATALLGGIQLDTKGFTSHSGSRTFDAASFLRAAGADAQLLSSFGKESK | not soluble |
| RYWKPEFHPDNSKSIEEWTDEIHTTLQKIMPEVKSENETAELFLSGGVDSSYILAMSDIEKTGSCGYEEERFDESKLAQQTANILGCKNSRYIITPEEYFASVPYVMYHMEQPTGDASAIVFAIGCKAAAENTNICYSGEGADEFFGGYNIYHKAECYGENLKTFYIGNTNIMNEGEKRKILKKYNPDVLPIEVVKGIYEETEELDTLTNMSNVDIQIWLEGDIYFNIDKMSTAVGLEVRMPLTDTRIFDIASRIPSEYKVKGKENKIAFRTAASKTLPEEIAFRNKLGFIVPIRIWMADDQYNKDIRDKFNSEIADKFFNIDEINEIFNDYISGNSDNWRKIWMIYTFLVWYEIYFVKC | not soluble |
| MSLSLLLQQHLSQPWRFLDHTSFGPTFQALQSFAYDDTLCTSIGKSQSPPTLRAWVHHNTVVLGIQDSRLPQIKAGIEALKGFQHDVIVRNSGGLAVVLDSGILNLSLVLKEEKGFSIDDGYELMYELICSMFQDHREQIEAREIVGSYCPGSYDLSIDGKKFAGISQRRIRGGVAVQIYLCVSGSGAERAKMIRTFYDKAVAGQPTKFVYPRIKPETMASLSELLGQPHNVSDVLLKALMTLQQHGASLLTESLSADEWLLYEQHFARISERNEKLLAEEGHHHHHH | soluble |
